These results are taken from the Immune Epitope Database (IEDB).

The target of one assay is HLA-B*53:01. Kind of assay: IEDB peptide-MHC binding, purified MHC/competitive/radioactivity; filed as Kd, often an IC50 or EC50 that approximates it; ≥ and ≤ were set here for values at or beyond the usual limits of such assays.
For a further assay, the target named is HLA-A*30:01. The assay is described as above.
A further assay concerns the target HLA-A*26:01. The description is as above.
In another assay the target is HLA-A*30:02. The assay is described as above.
The target of the next assay is HLA-A*01:01. The description is as above.
A further assay concerns the target HLA-B*08:01. Described as above.
Another assay has as its target HLA-A*32:01. Described as above.
The target in a further assay is HLA-A*29:02. Described as above.
In assay [1] the target is HLA-A*03:01. The description is as above.
The target in another assay is HLA-A*68:01. Described as above.
A further assay has as its target HLA-A*33:01. Described as above.
Assay [2] addresses HLA-A*31:01. The assay is described as above.
A further assay has as its target HLA-A*24:02. The assay is described as above.
The target of another assay is HLA-A*23:01. The description is as above.
The target of the next assay is HLA-A*11:01. The assay is described as above.
Assay [3] deals with HLA-A*03:01. Kind of assay: IEDB peptide-MHC binding, purified MHC/direct/fluorescence; filed as Kd, often an IC50 or EC50 that approximates it; ≥ and ≤ were set here for values at or beyond the usual limits of such assays. The conditions noted are these: source organism: Entamoeba histolytica HM-1:IMSS.
The target in assay [4] is HLA-A*31:01. The description is as above. The conditions noted are these: source organism: Entamoeba histolytica HM-1:IMSS.
[5] abbreviates: source organism: Dengue virus 3 Martinique/1243/1999.
Setting [6] is: source organism: Dengue virus 4 Dominica/814669/1981.
The mark [7] stands for this setting: source organism: Dengue virus 1 Brazil/97-11/1997.
[8] abbreviates: source organism: Dengue virus 4 Philippines/H241/1956.
The mark [9] stands for this setting: source organism: Vaccinia virus WR.
Where [10] appears, read: source organism: Mammarenavirus brazilense.
Setting [11] is: source organism: Mammarenavirus choriomeningitidis.
The mark [12] stands for this setting: source organism: Lassa virus Josiah.
The mark [13] stands for this setting: source organism: Dengue virus 2 Jamaica/1409/1983.
[14] abbreviates: source organism: Lymphocytic choriomeningitis virus (strain Armstrong).
[15] abbreviates: source organism: Mammarenavirus juninense.
Setting [16] is: source organism: SARS coronavirus Tor2.
Where [17] appears, read: source organism: Vaccinia virus Copenhagen.
Setting [18] is: source organism: Mammarenavirus tacaribeense.
Where [19] appears, read: source organism: Mammarenavirus guanaritoense.

Where only a bound is given, the exact number is not on record here.

One may read the Kd as the concentration at which binding is half-saturated. Take LATGPITTLW: in the assay with HLA-B*53:01 (setting [5]), the Kd was 78.6 nM.
With ASRRSWPLN, in the assay with HLA-A*30:01 (setting [6]), the Kd worked out at 50.2 nM.
Turning to LATGPLTTLW, the Kd with HLA-B*53:01 (setting [7]) was found to be 98.4 nM.
Turning to LTEIASLPTY, the Kd with HLA-A*26:01 (setting [8]) was determined as 899 nM; in the assay with HLA-A*30:02 (setting [8]), 226 nM; with HLA-A*30:01 (setting [8]), 9340 nM; with HLA-A*01:01 (setting [8]) it was 1.39 nM.
Regarding FPQSNAVIQ, in the assay with HLA-B*53:01 (setting [7]), the Kd stood at 527 nM.
Take SINVKHTSV: in the assay with HLA-B*08:01 (setting [9]), the Kd came to 13.3 nM.
Take QYIFTGQPLN: the dissociation constant (Kd) with HLA-A*30:01 (setting [5]) came out at 8840 nM.
Consider MIDNQKLSY, for which the dissociation constant Kd was no less than 61200 nM with HLA-A*32:01 (setting [10]); no less than 34700 nM with HLA-A*26:01 (setting [10]); 843 nM with HLA-A*30:02 (setting [10]); no less than 34600 nM with HLA-A*30:01 (setting [10]); 9.61 nM in the assay with HLA-A*01:01 (setting [10]); 106 nM with HLA-A*29:02 (setting [10]).
In the case of HLRVLFSIF, the Kd with HLA-B*08:01 (setting [9]) was 4.66 nM.
As to KKMIRPQPME, in the assay with HLA-A*30:01 (setting [7]), the Kd was determined as 8740 nM.
For the sequence LVSFLLLAGR, the Kd with HLA-A*03:01 [1] (setting [11]) is 803 nM; with HLA-A*68:01 (setting [11]) it was 36.4 nM; with HLA-A*33:01 (setting [11]), 151 nM; in the assay with HLA-A*30:01 (setting [11]), 9510 nM; in the assay with HLA-A*31:01 [2] (setting [11]), 9.28 nM.
For TPELEEEMF, in the assay with HLA-B*53:01 (setting [5]), the Kd was 1970 nM.
In the case of KYSRSKPAA, the dissociation constant Kd with HLA-A*30:01 (setting [9]) was 5.71 nM.
As to ITVSGLYPLA, the dissociation constant (Kd) in the assay with HLA-A*30:01 (setting [8]) is 462 nM.
DCIMTSYQYL: the dissociation constant (Kd) came out at 3040 nM in the assay with HLA-A*32:01 (setting [12]); 2310 nM with HLA-A*24:02 (setting [12]); 12600 nM with HLA-A*26:01 (setting [12]); 5330 nM with HLA-A*23:01 (setting [12]); 10400 nM with HLA-A*30:02 (setting [12]); 4430 nM with HLA-A*30:01 (setting [12]). Besides, the Kd worked out at 3860 nM with HLA-A*01:01 (setting [12]) and 14200 nM in the assay with HLA-A*29:02 (setting [12]).
Take AARDRQFEK: in the assay with HLA-A*30:01 (setting [9]), the Kd is 104 nM.
With RARISQGAG, the equilibrium dissociation constant (Kd) with HLA-A*30:01 (setting [13]) is 126 nM.
As for FPRSMLSIF, the dissociation constant (Kd) with HLA-B*08:01 (setting [9]) was 9.88 nM.
YNKQSLVSL: in the assay with HLA-B*08:01 (setting [9]), the Kd is 30.1 nM.
Take GPDIYKGVY: the Kd with HLA-A*32:01 (setting [14]) is no less than 77800 nM; with HLA-A*24:02 (setting [14]) it was no less than 77500 nM; in the assay with HLA-A*26:01 (setting [14]), no less than 77900 nM; with HLA-A*23:01 (setting [14]) it was no less than 77700 nM; in the assay with HLA-A*30:02 (setting [14]) it was 1820 nM; with HLA-A*30:01 (setting [14]), no less than 66200 nM. Further, the values for the Kd in the assay with HLA-A*01:01 (setting [14]) and with HLA-A*29:02 (setting [14]) were no less than 32200 nM and 2470 nM, respectively.
In the case of FCSHHFHQL, the Kd with HLA-B*08:01 (setting [7]) is 178 nM.
On to LLKLGFEEI, for which the Kd in the assay with HLA-B*08:01 (setting [9]) is 510 nM.
As to ATREAQKRA, the Kd with HLA-A*30:01 (setting [13]) came to 27.4 nM.
In the case of RMVMTTTANW, the Kd is 52.8 nM with HLA-A*23:01 (setting [8]) and 20.5 nM with HLA-B*53:01 (setting [8]).
On to NRRRRTAGV, for which the Kd with HLA-B*08:01 (setting [13]) was 121 nM.
As for DTVTYKCPLL, the Kd with HLA-A*30:01 (setting [6]) is 3080 nM.
For LLQMENKAWL, the Kd in the assay with HLA-B*08:01 (source organism: Dengue virus 2 16681-PDK53) was determined as 280 nM.
MFFIRFGKM: in the assay with HLA-B*08:01 (setting [9]), the Kd was determined as 31.9 nM.
In the case of KNKIPFLLL, in the assay with HLA-A*30:01 (setting [9]), the Kd was 92.4 nM.
With ASAHVRQSEY, the Kd is 827 nM with HLA-A*32:01 (setting [15]); no less than 24700 nM with HLA-A*26:01 (setting [15]); 5.79 nM with HLA-A*30:02 (setting [15]); 2730 nM in the assay with HLA-A*30:01 (setting [15]); 4.53 nM with HLA-A*01:01 (setting [15]); 102 nM with HLA-A*29:02 (setting [15]).
As to RLKTRIRNL, the Kd with HLA-B*08:01 (setting [9]) was 0.694 nM.
Regarding VRQMEGEGVL, in the assay with HLA-B*08:01 (source organism: Dengue virus 3 Sri Lanka/1266/2000), the Kd turned out to be 1710 nM.
With LYDVIPVTY, the Kd with HLA-A*32:01 (setting [15]) is no less than 77800 nM; with HLA-A*26:01 (setting [15]) it was no less than 77900 nM; with HLA-A*30:02 (setting [15]), 4200 nM; with HLA-A*30:01 (setting [15]), no less than 78100 nM; with HLA-A*01:01 (setting [15]) it was 145 nM; with HLA-A*29:02 (setting [15]), 375 nM.
In the case of KPAVRFAIL, the Kd with HLA-B*08:01 (setting [9]) is 1430 nM.
For KSAQCFKMFY, the Kd is 4700 nM with HLA-A*24:02 (setting [16]); no less than 86900 nM in the assay with HLA-A*26:01 (setting [16]); 5090 nM with HLA-A*23:01 (setting [16]); 2250 nM in the assay with HLA-A*11:01 (setting [16]); 5060 nM in the assay with HLA-A*03:01 [1] (setting [16]); 1450 nM in the assay with HLA-A*68:01 (setting [16]). Besides, the Kd with HLA-A*30:02 (setting [16]) is no less than 21200 nM; with HLA-A*33:01 (setting [16]), 753 nM; with HLA-A*31:01 [2] (setting [16]), 629 nM; with HLA-A*01:01 (setting [16]), no less than 89300 nM; with HLA-A*29:02 (setting [16]) it was 75.3 nM.
On to KTDFSNIRA, for which the Kd in the assay with HLA-A*30:01 (setting [17]) worked out at 209 nM.
Turning to MTTEDMLSVW, the values for the Kd in the assay with HLA-A*26:01 (setting [7]) and with HLA-B*53:01 (setting [7]) were 2090 nM and 856 nM, respectively.
For the sequence LMLVALLGAM, the Kd with HLA-B*08:01 (setting [8]) worked out at 7190 nM.
Turning to SNKRKVLAI, the Kd with HLA-B*08:01 (setting [9]) stood at 1.85 nM.
Still for that read-out and setting: in the case of SPLSKCVVV it was 30.9 nM.
Regarding MVKPKGKVV, the Kd in the assay with HLA-B*08:01 (setting [8]) was 44.6 nM.
Turning to FRYVFFEII, in the assay with HLA-B*08:01 (setting [17]), the equilibrium dissociation constant (Kd) came out at 208 nM.
Take RADRVIDPRR: the Kd with HLA-A*30:01 (setting [7]) is 1930 nM.
In the case of LKGMSYAMCL, the Kd with HLA-B*08:01 (source organism: Dengue virus 3 Singapore/8120/1995) amounted to 438 nM.
Take KITAEWLWK: the Kd in the assay with HLA-A*11:01 (setting [13]) was determined as 1440 nM; with HLA-A*03:01 [1] (setting [13]), 99.4 nM; with HLA-A*30:01 (setting [13]), 536 nM.
Turning to TTRNGEPHM, the Kd with HLA-A*30:01 (setting [13]) is 1200 nM.
In the case of FVAAALHNV, the Kd was no less than 77800 nM in the assay with HLA-A*32:01 (setting [18]); 2540 nM in the assay with HLA-A*26:01 (setting [18]); no less than 76900 nM in the assay with HLA-A*30:02 (setting [18]); 6100 nM with HLA-A*30:01 (setting [18]); no less than 20500 nM with HLA-A*01:01 (setting [18]); 13500 nM in the assay with HLA-A*29:02 (setting [18]).
Take RTKIPLSKV: the Kd with HLA-A*30:01 (setting [9]) was found to be 4.13 nM.
With RTRNALDNL, the Kd with HLA-A*30:01 (setting [5]) came to 3.33 nM.
In the case of TFIRSTMPLV, the Kd with HLA-A*30:01 (setting [8]) was 257 nM.
On to CTLEGVWAPF, for which the Kd amounted to 44.2 nM in the assay with HLA-A*32:01 (setting [19]); 116 nM in the assay with HLA-A*26:01 (setting [19]); 937 nM with HLA-A*30:02 (setting [19]); 6960 nM with HLA-A*30:01 (setting [19]); 1220 nM in the assay with HLA-A*01:01 (setting [19]); 957 nM with HLA-A*29:02 (setting [19]).
On to NPSFKRQII, for which the Kd with HLA-B*08:01 (setting [9]) stood at 19.5 nM.
On to MMKWIISIL, for which the Kd with HLA-B*08:01 (setting [9]) turned out to be 1.28 nM.
For ALLSRFFNM, the Kd with HLA-B*08:01 (setting [9]) worked out at 2.96 nM.
As for LWNFIHQQR, the Kd with HLA-A*03:01 [3] is no less than 20000 nM; in the assay with HLA-A*31:01 [4] it was 12.2 nM.
In the case of AFKNKRLVF, the Kd with HLA-B*08:01 (setting [9]) is 1560 nM.
On to MGLGKGWPL, for which, in the assay with HLA-B*08:01 (setting [13]), the Kd is 8.72 nM.
Take GIFMTATPPG: in the assay with HLA-A*30:01 (setting [13]), the Kd was determined as 1220 nM.
